In assay [1] the target is eIF4G-eIF4E complex (Saccharomyces cerevisiae) (UniProt P39935). Conditions: cited from earlier work.
Assay [2] concerns the target Ded1p (wild type, N-terminal His6-tag) (S. cerevisiae) (UniProt P06634). Nature of the assay: cross-linking; formaldehyde 1% (v/v), 30 min, room temperature; Ded1p 0.3 µM, eIF4A 2 µM or as indicated, RNA 2 µM (16 bp, 25 nt 3'-overhang), 0.5 mM ADPNP-MgCl2, unwinding buffer; Western blot with α-Ded1p. Background: A western blot detects proteins with antibodies after separation by electrophoresis.

A further assay has as its target T1, Ded1p-eIF4A-eIF4G (Saccharomyces cerevisiae, UniProt P06634).
T1 construct: gene DED1; His6-Ded1p, His6-eIF4A, GST-S-tag-eIF4G1-His; eIF4G preparation contains eIF4E; with ATP-dependent RNA helicase eIF4A; Eukaryotic initiation factor 4F subunit p150; Eukaryotic translation initiation factor 4E
The assay can be described thus: global fit of thermodynamic model to RNA unwinding data. The class given is biochemical. The settings on record: unwinding reactions, RNA 16 bp with 25 nt 3' overhang; fitted with energy-conservation constraints; RNA-bound complex; some ATP constants given only as limits.

The target of assay [3] is T2, eIF4A (S. cerevisiae) (UniProt P10081).
T2 sequence: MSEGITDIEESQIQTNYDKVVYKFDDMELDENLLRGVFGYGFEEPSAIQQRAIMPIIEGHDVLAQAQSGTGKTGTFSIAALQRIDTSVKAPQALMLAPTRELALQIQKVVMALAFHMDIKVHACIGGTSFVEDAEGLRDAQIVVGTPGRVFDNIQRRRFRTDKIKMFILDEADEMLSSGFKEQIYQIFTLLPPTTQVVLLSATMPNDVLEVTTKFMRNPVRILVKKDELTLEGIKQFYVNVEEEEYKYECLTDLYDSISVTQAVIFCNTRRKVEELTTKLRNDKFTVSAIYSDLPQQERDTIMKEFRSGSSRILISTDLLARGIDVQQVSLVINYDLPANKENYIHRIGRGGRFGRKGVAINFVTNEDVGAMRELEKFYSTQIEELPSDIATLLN
The assay can be described thus: global fit of RNA unwinding time courses to a thermodynamic model; K1/2 of a binding step calculated with the model of Figure 4A; RNA bound to the target before the step, no ATP.

Assay [4] deals with T2, eIF4A (S. cerevisiae). The assay can be described thus: global fit of RNA unwinding time courses to a thermodynamic model; K1/2 of a binding step calculated with the model of Figure 4A; RNA bound to the binder before the step, ATP bound to Ded1p.
The target of assay [5] is T2, eIF4A (S. cerevisiae). The assay can be described thus: global fit of RNA unwinding time courses to a thermodynamic model; K1/2 of a binding step calculated with the model of Figure 4A; step without RNA, ATP bound to Ded1p.
In assay [6] the target is T2, eIF4A (S. cerevisiae). The assay can be described thus: global fit of RNA unwinding time courses to a thermodynamic model; K1/2 of a binding step calculated with the model of Figure 4A; step without RNA, ATP bound to eIF4A.
Assay [7] concerns the target T2, eIF4A (S. cerevisiae). Nature of the assay: global fit of RNA unwinding time courses to a thermodynamic model; K1/2 of a binding step calculated with the model of Figure 4A; RNA bound to the binder before the step, ATP bound to Ded1p and to eIF4A.
Assay [8] deals with T2, eIF4A (S. cerevisiae). Nature of the assay: global fit of RNA unwinding time courses to a thermodynamic model; K1/2 of a binding step calculated with the model of Figure 4A; RNA bound to the target before the step, ATP bound to Ded1p and to eIF4A.
Assay [9] addresses T2, eIF4A (S. cerevisiae). Nature of the assay: global fit of RNA unwinding time courses to a thermodynamic model; K1/2 of a binding step calculated with the model of Figure 4A; RNA bound to the target before the step, ATP bound to Ded1p.
Assay [10] deals with T2, eIF4A (S. cerevisiae). The assay can be described thus: global fit of RNA unwinding time courses to a thermodynamic model; K1/2 of a binding step calculated with the model of Figure 4A (Kintek Global Explorer; 16 bp duplex, 25 nt 3' overhang); step without RNA and without ATP.
For assay [11], the target named is T2, eIF4A (S. cerevisiae). The assay can be described thus: global fit of RNA unwinding time courses to a thermodynamic model; K1/2 of a binding step calculated with the model of Figure 4A; RNA bound to the binder before the step, ATP bound to eIF4A.
Assay [12] deals with T2, eIF4A (S. cerevisiae). Nature of the assay: global fit of RNA unwinding time courses to a thermodynamic model; K1/2 of a binding step calculated with the model of Figure 4A; step without RNA, ATP bound to Ded1p and to eIF4A.
For assay [13], the target named is T2, eIF4A (S. cerevisiae). Nature of the assay: global fit of RNA unwinding time courses to a thermodynamic model; K1/2 of a binding step calculated with the model of Figure 4A; RNA bound to the binder before the step, no ATP.
In assay [14] the target is T2, eIF4A (S. cerevisiae). The assay can be described thus: global fit of RNA unwinding time courses to a thermodynamic model; K1/2 of a binding step calculated with the model of Figure 4A; RNA bound to the target before the step, ATP bound to eIF4A.

Broadly, the Kd is the concentration at which binding is half-saturated. What is called stoichiometry N is the number of molecules, sites or subunits per partner or assembly.

Ded1p, sequence (P06634 whole entry): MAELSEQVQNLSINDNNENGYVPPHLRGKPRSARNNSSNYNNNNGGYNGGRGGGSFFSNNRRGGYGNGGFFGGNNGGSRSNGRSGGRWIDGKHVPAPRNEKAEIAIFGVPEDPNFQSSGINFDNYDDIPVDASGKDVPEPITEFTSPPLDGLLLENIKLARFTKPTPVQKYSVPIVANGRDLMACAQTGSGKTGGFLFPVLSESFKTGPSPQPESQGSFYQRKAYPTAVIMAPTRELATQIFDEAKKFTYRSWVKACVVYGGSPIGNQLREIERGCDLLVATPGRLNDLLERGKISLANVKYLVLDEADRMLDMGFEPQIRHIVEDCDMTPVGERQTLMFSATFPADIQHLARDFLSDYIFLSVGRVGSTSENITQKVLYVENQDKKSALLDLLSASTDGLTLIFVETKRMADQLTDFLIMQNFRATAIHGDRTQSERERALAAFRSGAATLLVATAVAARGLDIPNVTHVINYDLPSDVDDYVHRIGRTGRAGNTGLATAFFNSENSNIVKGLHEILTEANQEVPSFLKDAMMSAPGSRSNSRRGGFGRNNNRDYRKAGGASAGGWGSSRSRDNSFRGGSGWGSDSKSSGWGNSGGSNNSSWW
T1 sequence (P06634 2-604, one chain of several): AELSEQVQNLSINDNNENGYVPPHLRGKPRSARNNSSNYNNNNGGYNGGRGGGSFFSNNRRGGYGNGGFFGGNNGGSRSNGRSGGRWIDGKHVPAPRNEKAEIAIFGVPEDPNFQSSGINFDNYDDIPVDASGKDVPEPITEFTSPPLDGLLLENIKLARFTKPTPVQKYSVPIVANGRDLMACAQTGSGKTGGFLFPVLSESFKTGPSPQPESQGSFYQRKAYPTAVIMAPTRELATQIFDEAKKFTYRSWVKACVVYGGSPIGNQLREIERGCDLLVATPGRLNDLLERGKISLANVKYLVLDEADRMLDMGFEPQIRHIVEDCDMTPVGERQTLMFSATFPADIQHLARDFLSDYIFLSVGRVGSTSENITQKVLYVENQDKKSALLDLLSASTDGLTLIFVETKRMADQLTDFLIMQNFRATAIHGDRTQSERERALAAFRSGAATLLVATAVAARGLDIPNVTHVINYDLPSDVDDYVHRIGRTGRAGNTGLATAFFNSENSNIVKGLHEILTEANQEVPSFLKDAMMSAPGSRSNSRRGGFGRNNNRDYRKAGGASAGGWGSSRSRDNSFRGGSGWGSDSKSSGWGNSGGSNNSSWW
T1 sequence (P39935 whole entry partner, one chain of several): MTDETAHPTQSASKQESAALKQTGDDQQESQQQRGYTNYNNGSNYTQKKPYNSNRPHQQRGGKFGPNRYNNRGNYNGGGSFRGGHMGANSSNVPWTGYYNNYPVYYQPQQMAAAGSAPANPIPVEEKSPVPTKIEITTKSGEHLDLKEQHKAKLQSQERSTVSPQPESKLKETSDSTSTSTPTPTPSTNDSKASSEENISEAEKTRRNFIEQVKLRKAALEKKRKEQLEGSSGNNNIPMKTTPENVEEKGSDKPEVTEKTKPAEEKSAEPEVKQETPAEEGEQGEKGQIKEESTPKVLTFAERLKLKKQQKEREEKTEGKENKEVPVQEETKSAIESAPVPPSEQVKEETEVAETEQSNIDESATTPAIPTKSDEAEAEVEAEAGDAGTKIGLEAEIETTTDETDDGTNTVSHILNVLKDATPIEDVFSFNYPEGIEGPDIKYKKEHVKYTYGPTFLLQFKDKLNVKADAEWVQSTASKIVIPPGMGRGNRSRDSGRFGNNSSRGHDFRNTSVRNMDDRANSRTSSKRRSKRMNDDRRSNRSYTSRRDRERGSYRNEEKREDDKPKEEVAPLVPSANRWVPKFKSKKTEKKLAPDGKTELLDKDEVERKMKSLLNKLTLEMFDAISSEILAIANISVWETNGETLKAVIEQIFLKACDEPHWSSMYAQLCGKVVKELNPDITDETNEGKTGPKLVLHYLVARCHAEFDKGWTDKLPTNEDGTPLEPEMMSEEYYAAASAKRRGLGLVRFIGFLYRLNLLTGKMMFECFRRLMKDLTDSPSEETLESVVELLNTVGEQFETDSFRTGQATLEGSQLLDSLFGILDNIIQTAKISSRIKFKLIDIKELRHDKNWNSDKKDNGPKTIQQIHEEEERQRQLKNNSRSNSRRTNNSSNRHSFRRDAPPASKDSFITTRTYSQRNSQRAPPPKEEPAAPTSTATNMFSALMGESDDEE
Ded1p (wild type, N-terminal His6-tag), sequence (P06634 whole entry): as the sequence (P06634 whole entry) above
eIF4G-eIF4E complex (Saccharomyces cerevisiae), sequence (P39935 whole entry, chain 1 of 2): as the sequence (P39935 whole entry partner, one chain of several) above
eIF4G-eIF4E complex (Saccharomyces cerevisiae), sequence (P07260 whole entry, chain 2 of 2, further chain): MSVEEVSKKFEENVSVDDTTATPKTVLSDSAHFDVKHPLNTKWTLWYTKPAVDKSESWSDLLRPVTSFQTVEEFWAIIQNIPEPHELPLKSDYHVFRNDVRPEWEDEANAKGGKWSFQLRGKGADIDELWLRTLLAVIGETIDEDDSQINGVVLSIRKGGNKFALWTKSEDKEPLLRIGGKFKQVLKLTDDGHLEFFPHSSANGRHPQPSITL

As for eIF4A (from UniProt P10081), the Kd in assay [1] is less than 30 nM.
For “Ded1p (wild type, N-terminal His6-tag) (from UniProt P06634 1-604) (enzyme; other documents disagree on this pair)”, in assay [2], the stoichiometry N is 3.
For the compound `Nc1ncnc2c1ncn2[C@@H]1O[C@H](COP(=O)(O)OP(=O)(O)OP(=O)(O)O)[C@@H](O)[C@H]1O` [ATP], on Ded1p-eIF4A-eIF4G, the K1/2 result is listed as “ATP binding to Ded1p-eIF4G-eIF4A-RNA complex”.
In the case of “Ded1p (from UniProt P06634 1-604) (enzyme; other documents disagree on this pair)”, the Kd is 45 nM in the assay with eIF4A (S. cerevisiae) [3]; 710 nM with eIF4A (S. cerevisiae) [4]; 800 nM in the assay with eIF4A (S. cerevisiae) [5]; 800 nM with eIF4A (S. cerevisiae) [6]; 710 nM in the assay with eIF4A (S. cerevisiae) [7]; 89 nM in the assay with eIF4A (S. cerevisiae) [8]. Further, the Kd with eIF4A (S. cerevisiae) [9] is 89 nM; with eIF4A (S. cerevisiae) [10], 800 nM; in the assay with eIF4A (S. cerevisiae) [11], 270 nM; with eIF4A (S. cerevisiae) [12], 800 nM; with eIF4A (S. cerevisiae) [13], 270 nM; in the assay with eIF4A (S. cerevisiae) [14], 45 nM.

Values taken from paper PMC4990422, “Coupling between the DEAD-box RNA helicases Ded1p and eIF4A” (eLife, 2016).
